From publication PMC3818285, “Increased Biomass, Seed Yield and Stress Tolerance Is Conferred in Arabidopsis by a Novel Enzyme from the Resurrection Grass Sporobolus stapfianus That Glycosylates the Strigolactone Analogue GR24” (PLoS ONE, 2013)

Substrate: [H][C@]12Cc3ccccc3[C@@]1([H])OC(=O)/C2=C/O[C@@H]1C=C(C)C(=O)O1
Assay: coupled enzyme assay (NADH oxidation), Lineweaver-Burk plot
Format: biochemical, Sporobolus stapfianus
Conditions: pH 7.4, leaf protein extract 25 µg, background without substrate subtracted, vector-only control extract

B1: SDG8i (Sporobolus stapfianus) (protein)
chain: MTKTVVLYPIRGAGHLTPMIQLARLFLQHGGFNVTVAIGSSPEDSDFSALVARAAAANPSVTFHILPQPSSTPDGSNTDVTPKHKHPVVHLFDTLGAMNAPLRDFLRSLPAVDALVVDMFCYDALDVAAELELPAYFLYASGAGDLAVFLNLPSARAGMTTSFAELGDTLLTLPGAPPFKASDLPADAINDNEVARCTRRMFERMPESHGILVNSFEALETRAVRALRDGLCVPDRATPPIYCIGPLVSGGGGEKEHECLRWLDAQPDNSVVFLCFGSMGTFSKKQLHDIAVGLEKSEQRFLWVVRSPRSDDHKFGEPRPELDLDAFLRDGFLERTKERGLVLKSWAPQVDVLHHRATGAFVTHCGWNSTLEGIMAGIPLLCWPLYAEQRMNKVFIVDELKLGVEMRGYNQEVVKAEEVESKVRWVLESEAGQAIRERVLAMKDKAAEALKEGGPSHVEFVKFLKDLEAVGRP
notes: unpurified leaf protein extract; no tag stated
Km: 349 µM
